Experimental data taken from patent US20250270315A1 (ELPISCIENCE SUZHOU BIOPHARMA, published 2025).

Legend:
[1] = molecular target: T1, human SIRPα v2 ECD recombinant protein (tag not given) (human); experiment: competitive ELISA, mFc-CD47 ECD on coated SIRPα v2 ECD
T1 construct: extracellular domain; also called ELISA microplate coated human SIRPα v2 ECD
Method: (§1) Competitive ELISA assay was used to determine whether the purified chimeric antibodies can block CD47 and SIRPα interaction. Briefly, antibody and mFc tagged human CD47 ECD recombinant protein were co-incubated with ELISA microplate coated human SIRPα v1 ECD (FIGS. 6A and 6B) or human SIRPα v2 ECD (FIGS. 7A and 7B) recombinant protein. After washing, HRP labeled anti-mouse Fc 2nd antibody (Sigma) was added and incubated at 37° C. for 1 hour. Then, 100 μl/well of TMB solution (Biotechnology) was added. After incubation for 15 minutes at room temperature, the reaction was stopped by the addition of 50 μl of 1N HCl. OD 450 nm was read. Blocking ratio was determined by blockade of human CD47 ECD recombinant protein binding to ELISA microplate coated human SIRPα ECD recombinant protein. Other than 005, all antibodies as tested can block interaction between human CD47 and different human SIRPα variants.
(§2) The humanized antibodies were tested for the ability to block CD47 and SIRPα interaction with competitive ELISA assay (refer to methods described in Example 4.2.3.).

[2] = molecular target: full length human SIRPα v1 with a small beta-gal fragment (ED) fused to its C-terminal, expressed in K562 … (human, UniProt P78324 31-504); experiment: cell-based or functional assay
full length human SIRPα v1 with a small beta-gal fragment (ED) fused to its C-terminal, expressed in K562 …, sequence (P78324 31-504): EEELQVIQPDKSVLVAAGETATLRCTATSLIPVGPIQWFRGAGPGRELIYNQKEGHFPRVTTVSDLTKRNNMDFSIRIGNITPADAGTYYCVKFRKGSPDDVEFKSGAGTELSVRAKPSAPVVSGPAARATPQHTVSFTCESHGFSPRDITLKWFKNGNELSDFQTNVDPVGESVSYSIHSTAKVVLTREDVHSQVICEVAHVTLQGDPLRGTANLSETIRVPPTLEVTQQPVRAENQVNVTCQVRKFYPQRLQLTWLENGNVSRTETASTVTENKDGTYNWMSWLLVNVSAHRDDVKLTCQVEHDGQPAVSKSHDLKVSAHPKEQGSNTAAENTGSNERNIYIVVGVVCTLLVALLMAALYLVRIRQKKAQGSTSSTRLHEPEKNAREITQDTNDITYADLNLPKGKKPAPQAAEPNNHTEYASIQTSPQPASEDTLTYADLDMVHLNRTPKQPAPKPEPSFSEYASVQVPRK

[3] = molecular target: T2, full length human SIRPα v1 stably expressed on CHOK1 or 293F cells (human, UniProt P78324 31-504); experiment: FACS, CHOK1-hSIRPα v1 cells
T2 construct: whole, on cells; also called CHOK1-human SIRPα v1; CHOK1-hSIRPα v1
T2 sequence (P78324 31-504): as above
From the text: (§3) All the humanized antibodies as tested were confirmed to retain the similar activity as the parental antibody of 025c to bind to SIRP family members.

[4] = molecular target: T3, human SIRPγ stably expressed on 293F cells (human, UniProt Q9P1W8 29-387); experiment: FACS, 293F-hSIRPγ cells
T3 construct: whole, on cells
T3 sequence (Q9P1W8 29-387): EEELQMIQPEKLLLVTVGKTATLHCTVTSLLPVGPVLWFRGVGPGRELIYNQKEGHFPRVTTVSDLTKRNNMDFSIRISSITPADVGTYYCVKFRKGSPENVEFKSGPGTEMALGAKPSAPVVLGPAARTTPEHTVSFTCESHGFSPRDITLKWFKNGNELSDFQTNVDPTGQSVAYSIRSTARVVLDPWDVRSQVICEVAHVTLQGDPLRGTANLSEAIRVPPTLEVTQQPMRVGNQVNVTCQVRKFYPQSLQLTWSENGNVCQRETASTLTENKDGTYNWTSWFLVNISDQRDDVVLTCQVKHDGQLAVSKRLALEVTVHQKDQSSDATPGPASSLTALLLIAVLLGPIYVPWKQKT
From the text: as §3

[5] = molecular target: T4, human SIRPα v1 ECD recombinant protein (tag not given) (human, UniProt P78324 31-373); experiment: competitive ELISA, mFc-CD47 ECD on coated SIRPα v1 ECD
T4 construct: extracellular domain; also called biotin labeled soluble human SIRPα v1 ECD recombinant protein; ELISA microplate coated human SIRPα v1 ECD
T4 sequence (P78324 31-373): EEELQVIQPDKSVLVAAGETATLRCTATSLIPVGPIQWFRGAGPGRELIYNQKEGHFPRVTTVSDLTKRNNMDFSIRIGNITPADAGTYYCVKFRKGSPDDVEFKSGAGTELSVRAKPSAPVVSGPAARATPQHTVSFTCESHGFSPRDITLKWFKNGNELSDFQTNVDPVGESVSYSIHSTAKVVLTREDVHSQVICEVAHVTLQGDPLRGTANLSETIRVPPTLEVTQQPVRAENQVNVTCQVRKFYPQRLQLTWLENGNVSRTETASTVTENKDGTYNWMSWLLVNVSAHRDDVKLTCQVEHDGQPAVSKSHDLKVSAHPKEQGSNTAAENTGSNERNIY
Method: as §1, §2

[6] = molecular target: T5, human SIRPβ stably expressed on CHOK1 cells (human, UniProt O00241 30-398); experiment: FACS, CHOK1 cells stably expressing human SIRPβ
T5 construct: whole, on cells; also called CHOK1-human SIRPB; CHOK1-hSIRPβ
T5 sequence (O00241 30-398): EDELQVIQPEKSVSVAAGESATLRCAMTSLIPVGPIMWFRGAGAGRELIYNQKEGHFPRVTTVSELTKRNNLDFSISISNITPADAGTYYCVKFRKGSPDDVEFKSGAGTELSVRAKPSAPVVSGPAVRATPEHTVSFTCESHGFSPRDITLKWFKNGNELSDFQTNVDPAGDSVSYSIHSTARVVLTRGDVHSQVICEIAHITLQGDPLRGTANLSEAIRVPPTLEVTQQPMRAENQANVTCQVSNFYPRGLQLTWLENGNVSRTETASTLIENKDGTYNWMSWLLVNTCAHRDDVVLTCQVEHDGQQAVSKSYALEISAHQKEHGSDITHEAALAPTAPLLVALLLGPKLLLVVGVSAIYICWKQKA
From the text: as §3

[7] = molecular target: Human SIRPα v1 (antigen of the Octet and Biacore affinity measurements) (human, UniProt P78324 31-370, limits assumed); experiment: SPR (Biacore), 1:1 binding model
Human SIRPα v1 (antigen of the Octet and Biacore affinity measurements), sequence (P78324 31-370 limits assumed): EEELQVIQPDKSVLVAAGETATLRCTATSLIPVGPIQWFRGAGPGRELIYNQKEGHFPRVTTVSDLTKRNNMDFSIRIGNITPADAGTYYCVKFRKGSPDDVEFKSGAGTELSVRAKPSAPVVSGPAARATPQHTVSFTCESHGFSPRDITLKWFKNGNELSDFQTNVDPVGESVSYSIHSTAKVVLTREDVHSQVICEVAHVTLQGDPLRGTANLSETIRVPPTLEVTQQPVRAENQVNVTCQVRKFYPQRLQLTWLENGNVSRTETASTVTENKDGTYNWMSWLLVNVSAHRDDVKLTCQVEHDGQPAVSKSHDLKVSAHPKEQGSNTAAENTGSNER
Method: The humanized antibodies were characterized for binding affinity against human SIRPα v1, human SIRPα v2 using Surface Plasmon Resonance technology (Biacore system). The association and dissociation curves were fit with 1:1 binding model, and the Ka/Kd/KD values for each antibody were calculated.

[8] = molecular target: T5, human SIRPβ stably expressed on CHOK1 …; experiment: FACS, CHOK1-hSIRPβ cells (columns c6 and c7 read as swapped)
From the text: as §3

[9] = molecular target: T2, full length human SIRPα v1 stably …; experiment: competitive FACS, mFc-CD47 ECD on CHOK1-human SIRPα v1 cells
Method: Competitive FACS assay was also set up to further compare the blocking activity of the humanized antibodies and reference antibodies. Briefly antibody and mFc tagged human CD47 ECD recombinant protein were co-incubated with CHOK1 cells stably expressing human SIRPα v1 (FIG. 16A) or human SIRPα v2 (FIG. 16B). After washing, dye labeled anti-mouse Fc 2nd antibody (Sigma) was added and incubated at 37° C. for 1 hour. Fluorescence intensity was detected. Blocking ratio was determined by blockade of human CD47 ECD recombinant protein binding to SIRPα expressed CHOK1 cells. […] In particular, HEFLB doesn't work at all for human SIRPα v2.

Row | Binder | IC50 [1] | TOP blocking (%) [1] | SHP-1 recruitment blocking, IC50 [2] | SHP-1 recruitment blocking, TOP blocking (%) [2] | EC50 [3] | TOP MFI [3] | EC50 [4] | TOP MFI [4] | IC50 [5] | TOP blocking (%) [5] | EC50 (read off the curve) [6] | Kd [7] | koff [7] | kon [7] | EC50 [8] | TOP MFI [8] | IC50 [9] | TOP blocking (%) [9]
1 | hu025.021 (antibody, V domains shown, Humanized 025; also called hu025.21) VH: EVQLVQSGAEVKKPGATVKISCKVSGFNIKDYYMHWVQQAPGKGLEWIGRIDPEDAETKYAPKFQGRVTITADTSTNTAYMELSSLRSEDTAVYYCDRGLAYWGQGTLVTVSS VL: EIVLTQSPATLSLSPGERATLSCSASSSVSSSYLYWYQQKPGQAPKLWIYSTSNLASGIPARFSGSGSGTDYTLTISSLEPEDFAVYYCHQWSSYPYTFGQGTKLEIK | 1.96 nM | 98.3% | 0.1 nM | 86.3% | 1.08 nM | 56400 MFI | 0.21 nM | 22100 MFI | 2.07 nM | 97.7% | ~0.7 nM | 3.05 nM | 0.00183 s⁻¹ | 599000 M⁻¹ s⁻¹ | 0.68 nM | 72000 MFI | – | –
2 | hu025.059 (antibody, V domains shown, Humanized 025; also called hu025.59) VH: EVQLVQSGAEVKKPGATVKISCKASGFNIKDYYMHWVQQAPGKGLEWIGRIDPEDAETKYAPKFQGRVTITADTSTNTAYMELSSLRSEDTAVYYCDRGLAYWGQGTLVTVSS VL: EIVLTQSPATLSLSPGERATLSCSASSSVSSSYLYWYQQKPGQAPKLWIYSTSNLASGIPARFSGSGSGTDYTLTISSLEPEDFAVYYCHQWSSYPYTFGQGTKLEIK | 2.03 nM | 98.3% | 0.1 nM | 78.8% | 1.05 nM | 59400 MFI | 0.2 nM | 22700 MFI | 2.48 nM | 97.1% | ~0.7 nM | 2.29 nM | 0.00123 s⁻¹ | 536000 M⁻¹ s⁻¹ | 0.67 nM | 73100 MFI | – | –
3 | hu025.023 (antibody, V domains shown, Humanized 025; also called hu025.23) VH: EVQLVQSGAEVKKPGATVKISCKVSGFNIKDYYMHWVQQAPGKGLEWIGRIDPEDAETKYAPKFQGRVTITADTSTNTAYMELSSLRSEDTAVYYCDRGLAYWGQGTLVTVSS VL: EIVLTQSPATLSLSPGERATLSCSASSSVSSSYLYWYQQKPGQAPKLWIYSTSNLASGIPARFSGSGSGTDFTLTISSLEPEDFAVYYCHQWSSYPYTFGQGTKLEIK | 2.07 nM | 98% | 0.1 nM | 85.5% | 1.13 nM | 57800 MFI | 0.2 nM | 22400 MFI | 2.6 nM | 97.2% | ~0.7 nM | 2.67 nM | 0.00172 s⁻¹ | 643000 M⁻¹ s⁻¹ | 0.66 nM | 72800 MFI | 0.57 nM | 97.7%
4 | hu025.060 (antibody, V domains shown, Humanized 025; also called hu025.60) VH: EVQLVQSGAEVKKPGATVKISCKASGFNIKDYYMHWVQQAPGKGLEWIGRIDPEDAETKYAPKFQGRVTITADTSTNTAYMELSSLRSEDTAVYYCDRGLAYWGQGTLVTVSS VL: EIVLTQSPATLSLSPGERATLSCSASSSVSSSYLYWYQQKPGQAPKLWIYSTSNLASGIPARFSGSGSGTDFTLTISSLEPEDFAVYYCHQWSSYPYTFGQGTKLEIK | 1.88 nM | 97% | 0.09 nM | 87.5% | 0.84 nM | 61500 MFI | 0.22 nM | 22200 MFI | 2.15 nM | 95.2% | ~0.7 nM | 1.99 nM | 0.00111 s⁻¹ | 560000 M⁻¹ s⁻¹ | 0.75 nM | 71200 MFI | 0.53 nM | 98.7%
5 | hu025.033 (antibody, V domains shown, Humanized 025) VH: EVQLVQSGAEVKKPGATVKISCKVSGFNIKDYYMHWVQQAPGKGLEWIGRIDPEDAETKYAPKFQGRVTITADTSTDTAYMELSSLRSEDTAVYYCDRGLAYWGQGTLVTVSS VL: EIVLTQSPATLSLSPGERATLSCSASSSVSSSYLYWYQQKPGQAPKLWIYSTSNLASGIPARFSGSGSGTDYTLTISSLEPEDFAVYYCHQWSSYPYTFGQGTKLEIK | 1.88 nM | 98.3% | 0.19 nM | 84.5% | 0.99 nM | 53800 MFI | 0.21 nM | 20900 MFI | 2.22 nM | 97.2% | ~0.7 nM | – | – | – | 0.8 nM | 69700 MFI | – | –
